Experimental data: US20200010554A1 (TUSK THERAPEUTICS, published 2020)

T1: recombinant mouse CD25 (mouse, UniProt P01590 22-236, biotinylated in FIG. 1A (site not stated))
T1 construct: also called biotinylated mouse CD25
T1 sequence (looked up): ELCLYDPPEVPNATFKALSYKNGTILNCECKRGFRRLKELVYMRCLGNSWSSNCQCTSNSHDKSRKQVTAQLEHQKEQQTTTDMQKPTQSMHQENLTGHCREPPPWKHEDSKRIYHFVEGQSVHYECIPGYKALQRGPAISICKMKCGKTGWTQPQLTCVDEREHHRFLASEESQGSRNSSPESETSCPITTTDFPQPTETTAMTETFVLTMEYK

T2: recombinant mouse CD25 his tagged (mouse, UniProt P01590 22-236, limits assumed)
T2 construct: also called rmCD25 his tagged; mCD25; not shown: his tag
T2 sequence (looked up): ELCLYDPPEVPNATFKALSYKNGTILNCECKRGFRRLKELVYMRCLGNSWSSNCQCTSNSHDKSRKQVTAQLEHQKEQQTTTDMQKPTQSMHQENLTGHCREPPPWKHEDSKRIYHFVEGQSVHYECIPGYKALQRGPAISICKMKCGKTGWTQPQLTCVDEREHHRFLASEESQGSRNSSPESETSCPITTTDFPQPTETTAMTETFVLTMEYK


Tests used:
[1] = target: recombinant mouse IL-2 (mouse) (UniProt P04351); assay: cell-based or functional assay
[2] = target: T1, recombinant mouse CD25; assay: BLI Octet RED384, IgG on AHQ sensors, 100 nM antigen, 1:1 model
Experimental: Briefly, ForteBio affinity measurements were performed by loading IgGs on-line onto AHQ sensors. Sensors were equilibrated off-line in assay buffer for 30 min and then monitored on-line for 60 seconds for baseline establishment. Sensors with loaded IgGs were exposed to 100 nM antigen for 3 minutes, and afterwards were transferred to assay buffer for 3 min for off-rate measurement. All kinetics were analyzed using the 1:1 binding model.

[3] = target: T2, recombinant mouse CD25 his tagged; assay: SPR Biacore 2000, antibody captured by anti-mouse antibody on CM-5 chip, recombinant mouse CD25 his tagged as analyte, bivalent analyte model
Experimental: Anti-mouse antibody was initially immobilised across all flow cells in a analysis buffer (pH 7.4, 10mM HEPES, 150 mM NaCl, 3 mM EDTA, 0.05% Tween 20) to an RU of between 16,000-18,000 over 10 minutes. […] Dissociation was performed in analysis buffer over 10 minutes. Regeneration steps between sample concentrations were performed in 10 mM Glycin pH1.7 for 10 minutes. A flow rate of 25 μl/min was maintained throughout the process. Kinetics data were fit using a global model bivalent analyte analysis software provided by Biacore with reference subtraction.

[4] = target: T1, recombinant mouse CD25; assay: BLI tandem cross-blocking: biotinylated mouse CD25 on SA sensor, 100 nM mouse IL-2, then antibody at 150 s

Row | Kd [2] [nM] | Kd [3] [nM] | Molecule | other results
1 | – | – | neutralizing anti-mouse IL-2 antibody, clone Jes6-1A12 | frequency of CD4 T cells both proliferating and producing Granzyme B after anti-CD3/anti-CD28 stimulation [1]: < 1%
2 | ~1 | 2.6 | 7D4(mIgG2a), recombinant anti-mouse CD25 antibody with mouse IgG2a and kappa constant regions (antibody, also called 7D4m2a; a7D4 mIgG2a) heavy: EVQLQQSGAALVKPGASVKMSCKASGYSFPDSWVTWVKQSHGKSLEWIGDIFPNSGATNFNEKFKGKATLTVDKSTSTAYMELSRLTSEDSAIYYCTRLDYGYWGQGVMVTVSSAKTTAPSVYPLAPVCGDTTGSSVTLGCLVKGYFPEPVTLTWNSGSLSSGVHTFPAVLQSDLYTLSSSVTVTSSTWPSQSITCNVAHPASSTKVDKKIEPRGPTIKPCPPCKCPAPNLLGGPSVFIFPPKIKDVLMISLSPIVTCVVVDVSEDDPDVQISWFVNNVEVHTAQTQTHREDYNSTLRVVSALPIQHQDWMSGKEFKCKVNNKDLPAPIERTISKPKGSVRAPQVYVLPPPEEEMTKKQVTLTCMVTDFMPEDIYVEWTNNGKTELNYKNTEPVLDSDGSYFMYSKLRVEKKNWVERNSYSCSVVHEGLHNHHTTKSFSRTPGK light: DVVLTQTPPTLSATIGQSVSISCRSSQSLLHSNGNTYLNWLLQRPGQPPQLLIYLASRLESGVPNRFSGSGSGTDFTLKISGVEAEDLGVYYCVQSSHFPNTFGVGTKLEIKRADAAPTVSIFPPSSEQLTSGGASVVCFLNNFYPKDINVKWKIDGSERQNGVLNSWTDQDSKDSTYSMSSTLTLTKDEYERHNSYTCEATHKTSTSPIVKSFNRNEC | –
3 | ~1 | – | 7D4(mIgG1), recombinant anti-mouse CD25 antibody with murine IgG1 and kappa constant regions (antibody, also called a7D4(mIgG1); 7D4 (mlg1)) heavy: EVQLQQSGAALVKPGASVKMSCKASGYSFPDSWVTWVKQSHGKSLEWIGDIFPNSGATNFNEKFKGKATLTVDKSTSTAYMELSRLTSEDSAIYYCTRLDYGYWGQGVMVTVSSAKTTPPSVYPLAPGSAAQTNSMVTLGCLVKGYFPEPVTVTWNSGSLSSGVHTFPAVLQSDLYTLSSSVTVPSSTWPSQTVTCNVAHPASSTKVDKKIVPRDCGCKPCICTVPEVSSVFIFPPKPKDVLMISLTPKVTCVVVDISKDDPEVQFSWFVDDVEVHTAQTKPREEQINSTERSVSELPILHQDWLNGKEFKCRVNSAAFPAPIEKTISKTKGRPKAPQVYTIPPPKEQMAKDKVSLTCMITNEFPEDITVEWQWNGQPAENYKNTQPIMDTDGSYFVYSKLNVQKSNWEAGNTFTCSVLHEGLHNHHTEKSLSHSPGK light: DVVLTQTPPTLSATIGQSVSISCRSSQSLLHSNGNTYLNWLLQRPGQPPQLLIYLASRLESGVPNRFSGSGSGTDFTLKISGVEAEDLGVYYCVQSSHFPNTFGVGTKLEIKRADAAPTVSIFPPSSEQLTSGGASVVCFLNNFYPKDINVKWKIDGSERQNGVLNSWTDQDSKDSTYSMSSTLTLTKDEYERHNSYTCEATHKTSTSPIVKSFNRNEC | –
4 | – | – | recombinant mouse IL-2 (ligand, UniProt P04351 21-169, looked up) APTSSSTSSSTAEAQQQQQQQQQQQQHLEQLLMDLQELLSRMENYRNLKLPRMLTFKFYLPKQATELKDLQCLEDELGPLRHVLDLTQSKSFQLEDAENFISNIRVTVVKLKGSDNTFECQFDDESATVVDFLRRWIAFCQSIISTSPQ | binding result [4]: binds
5 | – | 114 | 2E4, anti-mouse CD25 antibody from the 2E4 hybridoma (antibody, V domains shown, also called 2E4 (mlg1)) VH: EVQLVESGGGLVQPGRSLKLSCAASGFTFSDYGMAWVRQAPTKGLEWVASITNGGLNTYYRDSVKGRFTISRDNAKCTLYLQMDSLRSEDTATYYCATGGFSFWGQGTLVTVSS VL: DIVMTQSPTSMSISVGDRVTMNCKASQNVDSNVDWYQQKTGQSPKLLIYKASNRYTGVPDRFTGSGSGTDFTFTIRNMQAEDLAVYYCMQSNSYPLTFGSGTKLEIK | –
